Values of other authors in paper PMC9366932.

Target: Asp309 (UniProt position 309, LIAAPDTMSVS)

Substance: Aromatase (cytochrome P450 19A1), recombinant form referred to as aromatase WT (Homo sapiens)
- pKa: 8.2
